T1: 2488prp (Xpp1 candidate) (Hypocrea jecorina (Trichoderma reesei), UniProt G0RQ24 1-492)
T1 sequence: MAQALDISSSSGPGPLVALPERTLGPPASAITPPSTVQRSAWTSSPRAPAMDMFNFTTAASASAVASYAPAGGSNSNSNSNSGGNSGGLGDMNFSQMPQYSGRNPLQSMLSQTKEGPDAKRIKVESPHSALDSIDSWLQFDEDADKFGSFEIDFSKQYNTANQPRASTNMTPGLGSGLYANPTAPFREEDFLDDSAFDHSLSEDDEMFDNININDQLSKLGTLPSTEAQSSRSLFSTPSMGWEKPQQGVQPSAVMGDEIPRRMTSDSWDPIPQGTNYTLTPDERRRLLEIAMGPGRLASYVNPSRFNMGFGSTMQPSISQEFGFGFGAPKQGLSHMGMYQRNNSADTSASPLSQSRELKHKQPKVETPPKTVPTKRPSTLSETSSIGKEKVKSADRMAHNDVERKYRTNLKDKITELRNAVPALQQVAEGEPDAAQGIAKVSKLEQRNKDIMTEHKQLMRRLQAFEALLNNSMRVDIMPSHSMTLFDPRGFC

T2: 2488prp DBD (Xpp1 candidate) (Hypocrea jecorina (Trichoderma reesei), UniProt G0RQ24 395-492)
T2 sequence: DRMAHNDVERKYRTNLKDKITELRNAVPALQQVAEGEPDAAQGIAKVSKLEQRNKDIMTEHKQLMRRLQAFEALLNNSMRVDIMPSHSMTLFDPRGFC


Key:
2488prp (Xpp1 candidate) = molecular target: T1, 2488prp (Xpp1 candidate); experiment: EMSA; EMSA: 100 ng DBD or 60 ng IVT protein with 15 ng FAM probe, 15 min on ice, binding buffer per cited ref [41]; pull-down binding mix: 200 mM KCl, 200 ng/uL poly(dIdC), 200 ng/uL CKT067/CKT068, 8 mM spermidine, on ice; settings: protein: ivt; chain copies: 2; label: 5'-FAM on strand 1; blunt
[1] = molecular target: T2, 2488prp DBD (Xpp1 candidate); experiment: as above; settings: protein: recombinant; tags: GST removed by thrombin; chain copies: 2; label: 5'-FAM on strand 1; blunt

Binder | binding result (2488prp (Xpp1 candidate)) | binding result [1]
Lpxyn2 (dsDNA) DNA 1: TGATGAAAGGAGAACAACTTCTAGACTGGGTAAATTGGTCAATGGCCAGCCGCTC DNA 2: GAGCGGCTGGCCATTGACCAATTTACCCAGTCTAGAAGTTGTTCTCCTTTCATCA | binds | binds
Lpxyn2 M (dsDNA) DNA 1: TGATGAAAGGAGAACAACGGAGAGACTGGGTAAATTGGTCAATGGCCAGCCGCTC DNA 2: GAGCGGCTGGCCATTGACCAATTTACCCAGTCTCTCCGTTGTTCTCCTTTCATCA | no binding | no binding
